Source: publication PMC7203116, “Cryo-electron microscopy reveals two distinct type IV pili assembled by the same bacterium” (Nature Communications, 2020)

Target: the molecule itself
Assay: cryo-EM structure; single-particle cryoEM and helical reconstruction (SPRING) of pili isolated from T. thermophilus HB27; wide and narrow filaments boxed separately from the same micrographs; atomic models built de novo

Row | Protein | binding result
1 | PilA5 (TT_C1836), pilin of Thermus thermophilus HB27 (subunit of the narrow type IV pilus) (natural protein, UniProt Q72GL2 6-116, looked up, extra density attributed to an O-linked glycan at Ser73; disulphide bond Cys60-Cys88, 111 amino acids; all residues of the mature protein are in the model PDB 6XXE. numbers count on: the mature protein; Assembled as a helical filament (narrow pilus; rise 11.26 Å, twist 84.3°); the deposited model holds 16 identical subunits; also called Tt17; narrow pilus subunit; source: endogenous, pili isolated from T. thermophilus HB27 cells (ethanolamine buffer pH 10.5, ammonium sulfate …)) FTLIELAIVIVIIGILVAIAVPRFVDLTDQANQANVDATAAAVRSAYAIATVQAKGIPTCDQVFANPEGGSTSGSTWTSSDNSTTVSCNASADTFTISRGGKTRTLNLTVN | binds
2 | PilA4, major pilin of Thermus thermophilus HB27 (subunit of the wide type IV pilus) (natural protein, UniProt Q72JC0 7-131, looked up, extra densities attributed to O-linked glycans at Ser59, Ser66 and Ser71; disulphide bond Cys89-Cys124, PilA4, major type IV pilin of Thermus thermophilus HB27; mature pilin of 125 amino acids (Phe1 to Pro125) after cleavage of the class III signal peptide; all residues of the mature protein are in the model PDB 6XXD. numbers count on: the mature protein; Assembled as a helical filament (wide pilus; rise 9.33 Å, twist 92.5°); the deposited model holds 16 identical subunits; also called wide pilus …) FTLIELLIVIAIIAILAAVLIPNLLAARKRANDTVVTAYLNDAVKFQEMYQIDNNSYTSNQAALISLGLKSTPANVTFSIVSASANSYCMIAGHSGGTVWFAATPDKGVYKTNTAVTSSQPESCP | binds
